Measurements taken from article PMC11178655, “Dosimetry and pharmacokinetics of [^177Lu]Lu-satoreotide tetraxetan in patients with progressive neuroendocrine tumours” (European Journal of Nuclear Medicine and Molecular Imaging, 2024).
Where “and” joins values, the source holds several entries; their conditions need not be identical. Equal entries are not always repeated. Where a SMILES comes first, the peptide text is derived from it. Bridges are numbered along the chain shown (N, C = ends). [ ]: non-standard residue; d: D form. The star is where a group is joined. DOTA = O=C(O)CN1CCN(CC(=O)O)CCN(CC(=O)*)CCN(CC(=O)O)CC1; dPhe(4-NHCONH2) = NC(=O)Nc1ccc(C[C@@H](N)C(=O)O)cc1; Dihydroorotyl(S) = O=C1C[C@@H](C(=O)*)NC(=O)N1; Phe(4-Cl) = N[C@@H](Cc1ccc(Cl)cc1)C(=O)O; Phe(4-NH2) = Nc1ccc(C[C@H](N)C(=O)O)cc1

System: patients with progressive, SSTR-positive NETs
Test: Patient-specific image-based dosimetry (NUKDOS) of tumours and organs, phase I/II trial
Assay type: in vivo, human
Method: In both parts A and B of the study, patients underwent planar whole-body imaging at 4 h and 1, 2, 3, and 6 days after each [^177Lu]Lu-satoreotide tetraxetan treatment cycle. Patients in part A also underwent single-photon emission computed tomography/computed tomography (SPECT/CT) at 24 h after each [^177Lu]Lu-satoreotide tetraxetan cycle. Those in part B underwent SPECT/CT, immediately before or after planar scintigraphy, at 4 h, and 1, 2, 3, and 6 days after each [^177Lu]Lu-satoreotide tetraxetan administration. Full details of the image acquisition methodology are provided in the Supplementary Information.
Delineation of tumour volumes was performed on anatomical SPECT/CT images after each [^177Lu]Lu-satoreotide tetraxetan administration. Tumours with a longest diameter < 2 cm were not analysed due to the difficulty in correcting for partial volume effects caused by the limited spatial resolution of the SPECT/CT systems. For study inclusion in part A, one tumour lesion ≥ 2 cm must have been present for eligibility; in part B, two or more tumour lesions ≥ 2 cm must have been present, each with an uptake on SSTR imaging higher than that of normal liver parenchyma (target lesion on [^68Ga]Ga-DOTA-TATE or -DOTA-TOC positron emission tomography: maximum standardised uptake value [SUVmax] ≥ 2x the mean SUV [SUVmean] of liver background; or ^111In-scintigraphy/SPECT: Krenning score 3 or 4 [uptake > normal liver, or uptake > spleen or kidneys, respectively [26]]).
Reconstruction parameters were set up to produce isotropic voxels of < 5 mm; voxels were continuous throughout the field of view. Anatomic coverage of the acquisition was determined according to the patients’ tumour locations on the planar whole-body scan acquisition with liver, both kidneys and spleen in the same bed position. For organs showing [^177Lu]Lu-satoreotide tetraxetan uptake, regions of interest (ROIs)/volumes of interest (VOIs) were drawn manually over the whole organs of interest (whole body, left and right kidneys, liver, spleen, and bone marrow), using the NUKDOS software for planar whole-body scans and the SPECT/CT acquired in part A [27]. VOIs for the same organs were drawn for all SPECT/CT images acquired in part B. All ROIs/VOIs were then used for activity quantification. Time-integrated activity coefficients (TIACs) for a given source volume were computed by integrating the time-activity curves. Full details of the tumour delineation and activity quantification methodology are provided in the Supplementary Information.
Patient-specific dosimetry calculations were performed after each treatment cycle in both parts A and B, using the absorbed dose calculation features of the NUKDOS software for image-based dosimetry calculations. The NUKDOS software was chosen as it allowed for an integral approach to organ dosimetry (including image quantification, time-activity curve-fitting and dosimetry calculation). For the bone marrow, both image-based and blood-based calculations were performed in part A [28, 29]. In part B, only image-based bone marrow dosimetry was performed. Organ Level INternal Dose Assessment/EXponential Modelling (OLINDA/EXM) version 1.0 software, the most widely used version at the time of the study, was used to perform model-based dosimetry calculations, which were only performed after the first [^177Lu]Lu-satoreotide tetraxetan cycle for patients in part B. To generate organ-specific absorbed doses, TIACs were used as input data. Full details on OLINDA/EXM software settings and organ-specific TIAC calculation methods are provided in the Supplementary Information.
All images were acquired with a 20% energy window around the main photopeak of ^177Lu (208 keV). For scatter correction, the triple-energy window method was applied based on the recommendation of the Committee on Medical Internal Radiation Dose. Whole-body images were acquired with a scanning time of 20 cm/min in a 256 × 1,024 matrix. […]

[1] = Part B Cohort 3 (4.5 GBq, 300 µg; 700 µg at cycle 2), median (range), n = 8
[2] = Part B Cohort 3 (4.5 GBq/cycle), image-based dosimetry, median (range), n = 6
[3] = Part B Cohort 3 (4.5 GBq/cycle), median (range), n = 8
[4] = Part B Cohort 3 (4.5 GBq/cycle), median (range), n = 9
[5] = Part B Cohort 3, median (range), n = 8
[6] = Part B Cohort 6 (4.5 GBq/cycle), median (range), n = 6
[7] = Part B Cohort 6 (4.5 GBq/cycle), median (range), n = 7
[8] = Part B Cohort 6 (4.5 GBq/cycle), median (range), n/n-les 4/9

C[C@@H](O)[C@@H]1NC(=O)[C@H](CCCCN)NC(=O)[C@@H](Cc2ccc(NC(N)=O)cc2)NC(=O)[C@H](Cc2ccc(NC(=O)[C@@H]3CC(=O)NC(=O)N3)cc2)NC(=O)[C@H](NC(=O)[C@H](Cc2ccc(Cl)cc2)NC(=O)CN2CCN(CC(=O)O)CCN(CC(=O)O)CCN(CC(=O)O)CC2)CSSC[C@@H](C(=O)N[C@H](Cc2ccc(O)cc2)C(N)=O)NC1=O [[^177Lu]Lu-satoreotide tetraxetan, metal not drawn] ({DOTA}-[Phe(4-Cl)][dC][Phe(4-NH2)](Dihydroorotyl(S))[dPhe(4-NHCONH2)]KTC[dY]-NH2; disulfide 2-7 (inferred); C-terminus assumed)
Cycle 3 ADC, Kidneys [1]: 0.8 (0.4–1.2) Gy/GBq | Cycle 3 ADC, Tumours [1]: 5.5 (2.6–16.8) Gy/GBq | Ratio of ADCs Cycle 2/Cycle 1 (700 vs. 300 µg), Bone marrow [2]: 95.0 (36.4–143) % | Ratio of ADCs Cycle 2/Cycle 3 (700 vs. 300 µg), Bone marrow [2]: 95.0 (60.0–125) % | Ratio of ADCs Cycle 2/Cycle 3 (700 vs. 300 µg), Spleen (Part B Cohort 3 (4.5 GBq/cycle), median (range), n = 5): 79.3 (61.2–90.8) % | Ratio of ADCs Cycle 2/Cycle 1 (700 vs. 300 µg), Spleen (Part B Cohort 3 (4.5 GBq/cycle), median (range), n = 6): 61.9 (45.9–108) % | Ratio of ADCs Cycle 2/Cycle 3 (700 vs. 300 µg), Body [3]: 101 (78.7–132) % | Ratio of ADCs Cycle 2/Cycle 3 (700 vs. 300 µg), Kidney [3]: 82.0 (64.8–110) % | Ratio of ADCs Cycle 2/Cycle 1 (700 vs. 300 µg), Body [4]: 83.3 (52.8–100) % | Ratio of ADCs Cycle 2/Cycle 1 (700 vs. 300 µg), Kidney [4]: 80.8 (61.0–113) % | Ratio of ADCs Cycle 2/Cycle 3 (700 vs. 300 µg), Liver lesions (Part B Cohort 3 (4.5 GBq/cycle), median (range), n/n-les 6/9): 68.9 (57.3–121) % | Ratio of ADCs Cycle 2/Cycle 1 (700 vs. 300 µg), Liver lesions (Part B Cohort 3 (4.5 GBq/cycle), median (range), n/n-les 7/10): 70.4 (52.4–95.7) % | Ratio of ADCs Cycle 2/Cycle 3 (700 vs. 300 µg), All lesions (Part B Cohort 3 (4.5 GBq/cycle), median (range), n/n-les 8/15): 77.6 (52.4–121) % | Ratio of ADCs Cycle 2/Cycle 1 (700 vs. 300 µg), All lesions (Part B Cohort 3 (4.5 GBq/cycle), median (range), n/n-les 9/17): 62.5 (27.6–95.7) % | Ratio of Cycle 3/ Cycle 1 ADCs, Bone marrow (Part B Cohort 3, image-based dosimetry, median (range), n = 6): 106 (36.4–138) % | Ratio of Cycle 3/ Cycle 1 ADCs, Spleen (Part B Cohort 3, median (range), n = 5): 87.8 (76.0–152) % | Ratio of Cycle 3/ Cycle 1 ADCs, Kidneys [5]: 94.1 (78.9–146) % | Ratio of Cycle 3/ Cycle 1 ADCs, Tumours [5]: 80.5 (44.1–152) % | Cycle 1 ADC, Bone marrow (Part B Cohort 6 (4.5 GBq, 300 µg), image-based dosimetry, median (range), n = 6): 0.1 (0.0–0.2) Gy/GBq | Cycle 1 ADC, Spleen (Part B Cohort 6 (4.5 GBq, 300 µg), median (range), n = 6): 0.8 (0.4–1.0) Gy/GBq | Cycle 1 ADC, Tumours (Part B Cohort 6 (4.5 GBq, 300 µg), median (range), n = 8): 13.5 (2.2–81.0) Gy/GBq | Cycle 1 ADC, Kidneys (Part B Cohort 6 (4.5 GBq, 300 µg), median (range), n = 9): 0.8 (0.4–1.1) Gy/GBq | Cycle 3 ADC, Bone marrow (Part B Cohort 6 (4.5 GBq, 300 µg; 1,300 µg at cycle 2), image-based dosimetry, median (range), n = 3): 0.1 (0.0–0.1) Gy/GBq | Cycle 3 ADC, Spleen (Part B Cohort 6 (4.5 GBq, 300 µg; 1,300 µg at cycle 2), median (range), n = 4): 0.8 (0.7–1.5) Gy/GBq | Cycle 3 ADC, Tumours (Part B Cohort 6 (4.5 GBq, 300 µg; 1,300 µg at cycle 2), median (range), n = 5): 7.7 (3.2–70.3) Gy/GBq | Cycle 3 ADC, Kidneys (Part B Cohort 6 (4.5 GBq, 300 µg; 1,300 µg at cycle 2), median (range), n = 6): 0.8 (0.7–1.2) Gy/GBq | Ratio of ADCs Cycle 2/Cycle 3 (1300 vs. 300 µg), Bone marrow (Part B Cohort 6 (4.5 GBq/cycle), image-based dosimetry, median (range), n = 3): 114 (50.0–120) % | Ratio of ADCs Cycle 2/Cycle 1 (1300 vs. 300 µg), Bone marrow (Part B Cohort 6 (4.5 GBq/cycle), image-based dosimetry, median (range), n = 4): 200 (80.0–240) % | Ratio of ADCs Cycle 2/Cycle 3 (1300 vs. 300 µg), Spleen (Part B Cohort 6 (4.5 GBq/cycle), median (range), n = 4): 49.7 (49.3–52.6) % | Ratio of ADCs Cycle 2/Cycle 1 (1300 vs. 300 µg), Spleen (Part B Cohort 6 (4.5 GBq/cycle), median (range), n = 5): 48.0 (44.3–94.4) % | Ratio of ADCs Cycle 2/Cycle 3 (1300 vs. 300 µg), Body [6]: 87.6 (72.7–102) % | Ratio of ADCs Cycle 2/Cycle 3 (1300 vs. 300 µg), Kidney [6]: 72.4 (52.8–96.3) % | Ratio of ADCs Cycle 2/Cycle 1 (1300 vs. 300 µg), Body [7]: 82.3 (48.3–97.6) % | Ratio of ADCs Cycle 2/Cycle 1 (1300 vs. 300 µg), Kidney [7]: 92.5 (65.9–121) % | Ratio of ADCs Cycle 2/Cycle 1 (1300 vs. 300 µg), Liver lesions [8]: 48.4 (24.7–76.5) % | Ratio of ADCs Cycle 2/Cycle 3 (1300 vs. 300 µg), Liver lesions [8]: 67.9 (40.6–104) % | Ratio of ADCs Cycle 2/Cycle 3 (1300 vs. 300 µg), All lesions (Part B Cohort 6 (4.5 GBq/cycle), median (range), n/n-les 5/11): 67.9 (40.6–104) % | Ratio of ADCs Cycle 2/Cycle 1 (1300 vs. 300 µg), All lesions (Part B Cohort 6 (4.5 GBq/cycle), median (range), n/n-les 6/13): 44.4 (24.7–76.5) % | Ratio of Cycle 3/ Cycle 1 ADCs, Bone marrow (Part B Cohort 6, image-based dosimetry, median (range), n = 3): 200 (175–400) % | Ratio of Cycle 3/ Cycle 1 ADCs, Spleen (Part B Cohort 6, median (range), n = 3): 185 (84.2–192) % | Ratio of Cycle 3/ Cycle 1 ADCs, Tumours (Part B Cohort 6, median (range), n = 4): 79.0 (28.6–114) % | Ratio of Cycle 3/ Cycle 1 ADCs, Kidneys (Part B Cohort 6, median (range), n = 5): 143 (88.8–198) % | Cumulative bone marrow absorbed dose, single patient (cohort 1 patient, one cycle at 5.9 GBq, developed grade 3 thrombocytopenia): 3.6 Gy | Overall specific absorbed dose coefficient in all lesions, initial diagnosis Pheochromocytoma + paraganglioma (first treatment cycle, median, N = 4): 2.1 Gy/GBq | Overall specific absorbed dose coefficient in all lesions, initial diagnosis Lung NET (first treatment cycle, median, N = 6): 5.1 Gy/GBq | Overall specific absorbed dose coefficient in all lesions, initial diagnosis GEP-NET (first treatment cycle, median, N = 23): 5.8 Gy/GBq | Patients with ADC ratio > 150% between cycle 3 and cycle 1, bone marrow (human, in vivo): 23.8 % of patients | Patients with ADC ratio > 150% between cycle 3 and cycle 1, kidneys (human, in vivo): 8.3 % of patients | Patients with ADC ratio > 150% between cycle 3 and cycle 1, liver (human, in vivo): no patients | Patients with ADC ratio > 150% between cycle 3 and cycle 1, spleen (human, in vivo): 22.2 % of patients | Mean cumulative absorbed dose in the left and right kidneys, single patient (part A patient, three cycles each at 4.5 GBq, eGFR below normal at baseline, no further deterioration of renal function): 24.1 Gy | Cumulative bone marrow absorbed dose, single patient (part A patient, three treatment cycles at 4.5, 4.4 and 4.3 GBq, no acute haematological toxicity): 2.2 Gy | Cumulative absorbed dose, bone marrow, image-based method (part A, cycles 1–3, 11 evaluated patients, median): 1.1 Gy | Cycle 1 ADC, Tumours (part B (all cohorts), median [range]): 7.9 [1.9–83.3] Gy/GBq | Cumulative bone marrow absorbed dose, single patient (part B cohort 1 patient, two treatment cycles at 4.7 GBq, no acute haematological toxicity): 1.9 Gy | Cumulative absorbed dose, kidneys (both left and right) (parts A and B, after cycles 1–3, median, pre-specified limit 23.0 Gy): 10.8 Gy | Cumulative absorbed dose, bone marrow, image-based (parts A and B, patients who completed three cycles (n = 21), median, pre-specified limit 1.5 Gy): 1.1 Gy | Cycle 1 ADC of tumours with ADC ratio cycle 3/cycle 1 > 150% (range): 0.6–4.1 Gy/GBq | Observations of ADC ratio between cycle 3 and cycle 1 in tumours > 150% (share of observations): 6.5% | Cumulative bone marrow absorbed dose, single patients (two additional patients after treatment cycle 4, individual values): 1.5 Gy and 1.8 Gy
